This note sets out measurements from patent publication CN117651715A (UNIV OXFORD INNOVATION LTD, dated 2024).

In experiment [1] the target is 人类CD1a池B蛋白 (human CD1a pool B protein, recombinant) (human) (UniProt P06126). As to the kind of experiment: SPR (Biacore T200), antibody captured, human CD1a titrated, heterogeneous ligand model. (In general: SPR reads the build-up and loss of mass on a sensor chip optically.)
Experiment [2] has the same target. Kind of experiment: SPR (Biacore T200), antibody captured, human CD1a titrated, 1:1 model.
The target in experiment [3] is T1, 人类CD1a池B蛋白 (human CD1a pool B protein, recombinant) (human, UniProt P06126 17-300, limits assumed).
T1 construct: Recombinant protein used in ELISA, Biacore and on beads; also called 人类CD1a蛋白; CD1a包被珠 (on beads)
Kind of experiment: SPR (Biacore T200), antibody captured on anti-species F(ab')2, human CD1a titrated 0-50 nM, 1:1 model.

In experiment [4] the target is T1, 人类CD1a池B蛋白 (human CD1a pool B protein, …). Kind of experiment: SPR (Biacore T200), antibody captured, human CD1a titrated, 1:1 model.

T1 sequence (P06126 17-300 limits assumed): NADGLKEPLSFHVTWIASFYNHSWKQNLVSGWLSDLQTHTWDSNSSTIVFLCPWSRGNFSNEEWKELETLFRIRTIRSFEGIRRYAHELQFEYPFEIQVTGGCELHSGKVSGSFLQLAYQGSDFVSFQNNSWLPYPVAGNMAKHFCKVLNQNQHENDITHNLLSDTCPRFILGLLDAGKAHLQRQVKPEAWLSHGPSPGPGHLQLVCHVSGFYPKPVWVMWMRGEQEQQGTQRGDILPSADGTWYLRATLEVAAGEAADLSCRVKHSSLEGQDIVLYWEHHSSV

B1: 16(VR11834) (antibody, from another filing, V domains shown)
VH: EVQLVESGGGLVKPGGSLKLSCAASGFTFSNYAMSWVRQTPEKRLEWVAAINSNGGSAYYPDTVKDRFTISRDNAKNTLYLQMSSLRSEDTALYYCARRFYYDYGWFAYWGQGTLVTVSS
VL: DIVLTQSPASLSASVGETVTITCRASENIDSYLAWYQQKQGKSPQLLVYAATLLADGVPSRFSGSGSGTQYSLKINSLQSEDVARYYCQHYYSSPWTFGGGTKLEIK
The term Kd denotes the free concentration of one partner at which half of the binding sites on the other are occupied at equilibrium, for simple one-to-one binding. For orientation: koff means the first-order rate constant of dissociation. One may read the kon as a measure of how fast the partners come together. Consider B1, for which, in experiment [1], the equilibrium dissociation constant (Kd) amounted to 0.392 nM, the ka 2 was 514000 M⁻¹ s⁻¹, the kd 2 was found to be 0.00658 s⁻¹ and the koff came out at 0.000729 s⁻¹. Further, the kon in experiment [1] stood at 1.86e+06 M⁻¹ s⁻¹.

B2: 110(VR12112) (antibody, from another filing, V domains shown)
VH: QSVEESGGRLVTPGTPLTLTCTVSGFSLSSYAMIWVRQAPGKGLEWIGIINSSDNTHYATWAKGRFTISKTSTTVDLKITSPTTEDTATYFCARDPYDYGYGWYFDLWGPGTLVTVSS
VL: AQVLTQTPSPVSAAVGGTVTINCQASQSVFNNKNLAWYQQKPGQPPKLLIYKASTLASGVSSRFKGSGSGTQFALTISGVQCDDAATYYCQGEFSCSSTDCVTFGGGTEVVVK
For the molecule B2, in experiment [2], the Kd amounted to 1.97 nM, the koff worked out at 0.000874 s⁻¹ and the kon is 443000 M⁻¹ s⁻¹.

B3: 116(VR12117) (antibody, from another filing, V domains shown)
VH: QSVEESGGRLVTPGTPLTLTCTVSGFSLSNYAMSWVRQAPGKGLEWIGIIYTTGFTYYASWVKGRFTISKTSTTVDLKITSPTTEDTATYFCARGLATYVSPPTRLDLWGQGTLVTVSS
VL: AQVLTQTPSPVSAAVGGTVTINCQASQSIYNSKNLAWYQQKPGQPPKLLIYSASTLASGVPSRFKGSGSGTQFTLTISDLECDDAATYYCQGEFSCSSVDCATFGGGTEVVVK
Take B3: in experiment [2], the Kd came to 2.89 nM, the off-rate constant (koff) came out at 0.0014 s⁻¹ and the kon is 483000 M⁻¹ s⁻¹.

B4: 111(VR12113) (antibody, from another filing, V domains shown)
VH: QSVEESGGRLVTPGTPLTLTCTASGFSLSTYAMSWVRQAPGKGLEWIGIISSSGSTYYASWAKGRFTISKTSTTVDLKITSPTTEDTATYFCARETWYWLDLWGQGTLVTVSS
VL: AVEMTQTPASVSAAVGGTVTINCQASEDIYSNLAWYQQKPGQPPKLLIYGASTLASGVPSRFKGSGSGTEYTLTISGVQCDDAATYYCQCAYDSSSYGTPFGGGTEVVVK
Regarding B4, in experiment [2], the dissociation constant (Kd) came out at 0.0312 nM, the koff came out at 1.47e-08 s⁻¹ and the on-rate (kon) stood at 321000 M⁻¹ s⁻¹.

B5: 77A(VR11851) (antibody, V domains shown)
VH: QSVEESGGRLVTPGTPLTLTCTVSGFSLSSYAMSWVRQAPGKGLEWIGIISSSGTTYYASWAKGRFTISKTSTTVDLKITSPTTEDTATYFCARVDYYSSGWGGLWGPGTLVTVSS
VL: AVEMTQTPASMSAAVGGTVTIKCQASEDIYSNLAWYQQKPGQPPKLLIYGASTLASGVPSRFKGSGSGTEYTLTISGVQCDDAATYYCQCTYDTSSYGNTFGGGTEMVVE
On to B5, for which the on-rate (kon) in experiment [3] is 469000 M⁻¹ s⁻¹. In addition, in experiment [4], the Kd is 0.24 nM and the koff is 0.000113 s⁻¹.
